From US20080300163A1 come the findings set out here.

Experiment [1] deals with T1, full length rat GHR (L43R) on BAF3 cells (clone 2E2-2B12-F4) (rat) (UniProt P16310).
T1 sequence (looked up): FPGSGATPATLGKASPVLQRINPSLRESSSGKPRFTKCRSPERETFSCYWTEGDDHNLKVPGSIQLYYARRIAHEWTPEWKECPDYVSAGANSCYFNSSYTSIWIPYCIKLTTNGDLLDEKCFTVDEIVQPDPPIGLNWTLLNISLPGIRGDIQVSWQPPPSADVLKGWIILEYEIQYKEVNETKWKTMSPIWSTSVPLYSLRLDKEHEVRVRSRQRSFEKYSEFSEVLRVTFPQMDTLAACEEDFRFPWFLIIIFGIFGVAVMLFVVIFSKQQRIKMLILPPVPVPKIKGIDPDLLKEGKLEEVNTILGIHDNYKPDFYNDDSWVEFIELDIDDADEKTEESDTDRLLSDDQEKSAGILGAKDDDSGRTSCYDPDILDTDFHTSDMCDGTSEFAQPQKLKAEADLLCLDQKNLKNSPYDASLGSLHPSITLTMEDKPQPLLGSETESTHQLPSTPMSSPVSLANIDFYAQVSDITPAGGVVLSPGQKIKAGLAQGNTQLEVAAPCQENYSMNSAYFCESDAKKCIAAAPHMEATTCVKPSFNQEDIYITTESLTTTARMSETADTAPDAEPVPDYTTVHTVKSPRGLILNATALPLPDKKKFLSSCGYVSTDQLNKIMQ
The experiment in a line: cell-based or functional assay.

Experiment [2] deals with human growth hormone receptor on IM-9 cells (human) (UniProt P10912). Kind of experiment: cell-based or functional assay.
UniProt P10912, sequence (P10912 19-638): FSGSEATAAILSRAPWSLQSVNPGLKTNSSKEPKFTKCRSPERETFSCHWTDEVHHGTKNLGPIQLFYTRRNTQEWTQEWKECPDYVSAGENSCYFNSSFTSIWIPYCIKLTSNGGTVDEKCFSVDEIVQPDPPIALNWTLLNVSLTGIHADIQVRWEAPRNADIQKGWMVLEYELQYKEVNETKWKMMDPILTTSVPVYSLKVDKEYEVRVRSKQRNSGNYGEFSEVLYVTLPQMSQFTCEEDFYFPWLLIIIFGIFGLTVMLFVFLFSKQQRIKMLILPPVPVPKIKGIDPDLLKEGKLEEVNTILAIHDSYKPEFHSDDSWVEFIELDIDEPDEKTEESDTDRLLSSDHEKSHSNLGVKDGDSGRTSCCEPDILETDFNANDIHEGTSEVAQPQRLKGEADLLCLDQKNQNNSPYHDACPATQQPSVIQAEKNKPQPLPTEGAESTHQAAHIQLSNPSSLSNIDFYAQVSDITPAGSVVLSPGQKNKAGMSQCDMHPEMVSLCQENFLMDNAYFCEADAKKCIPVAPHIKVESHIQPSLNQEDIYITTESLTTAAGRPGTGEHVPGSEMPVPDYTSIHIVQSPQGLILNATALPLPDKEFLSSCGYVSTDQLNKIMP

In turn, “G131pAF-30KPEG hGH (from UniProt P01241 27-217) (ligand)” returned a Proliferation EC50 in experiment [1] of 4.6 nM. The pSTAT5 EC50 (nM) in experiment [2] stood at 23.8 nM. “K145pAF-30KPEG hGH (from UniProt P01241 27-217) (ligand)” had a Proliferation EC50 in experiment [1] of 5.3 nM. This substance gave a pSTAT5 EC50 (nM) in experiment [2] of 20.6 nM. Substance “R134pAF-20KPEG hGH (from UniProt P01241 27-217) (ligand)” registered a pSTAT5 EC50 (nM) in experiment [2] of 5.3 nM. In experiment [1], “Y35pAF-40KPEG hGH (from UniProt P01241 27-217) (ligand)” registered a Proliferation EC50 of 24 nM. Moreover, the pSTAT5 EC50 (nM) in experiment [2] is 53.3 nM. For the substance “Y143pAF-30KPEG hGH (from UniProt P01241 27-217) (ligand)”, the Proliferation EC50 in experiment [1] worked out at 6.6 nM. In addition, the pSTAT5 EC50 (nM) in experiment [2] stood at 12.3 nM.
